Measured values taken from US20250122303A1 (HUMMINGBIRD BIOSCIENCE PTE, published 2025).
Read-outs that look alike come from different tables or passages of the source.

Columns and labels:
[1] = target: T1, human HER3 polypeptide (human, UniProt P21860 20-643); assay: BLI; after 15 days at 40 °C/80% RH
T1 construct: Recombinant antigen of the ELISAs; also called human HER3 (Sino Biological Inc.); human antigen HER3

[2] = target: T2, hCD16a (human, UniProt P08637 17-208, limits assumed); assay: BLI; after 15 days at 40 °C/80% RH
T2 construct: also called human CD16a

[3] = target: T1, human HER3 polypeptide; assay: BLI; day 0 of storage at 40 °C/80% RH
[4] = target: T2, hCD16a; assay: BLI; day 0 of storage at 40 °C/80% RH
[5] = target: T3, moFcgRIV; assay: Bio-Layer Interferometry (determined as described in Example 7)
T3 construct: also called CD16-2; mFcγRIV
T3 chain: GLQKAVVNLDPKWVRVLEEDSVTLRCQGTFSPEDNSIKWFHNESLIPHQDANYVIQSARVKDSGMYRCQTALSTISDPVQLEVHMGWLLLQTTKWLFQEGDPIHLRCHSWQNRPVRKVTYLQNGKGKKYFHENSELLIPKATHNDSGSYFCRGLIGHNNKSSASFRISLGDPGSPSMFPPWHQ

[6] = target: T4, His-tagged human HER3 (human, UniProt P21860 20-643); assay: BLI (Octet QK384), antibody captured on AHC sensors, His-tagged human HER3 in solution, without NRG1
T4 construct: Antigen of the BLI experiments and of the HER2-Fc dimerisation ELISA; also called HER3 His; not shown: His tag
Method: Binding of anti-HER3 antibodies to human HER3 was evaluated by BLI. Briefly, anti-Human IgG Capture (AHC) sensors (ForteBio) were loaded with anti-HER3 IgG antibodies (25 nM). Kinetic measurements were performed in absence or presence of NRG1. NRG1 was used at 1:1 molar ratio with HER3 wherein the complex was allowed to form at RT for 2 h. […] All measurements were performed at 25° C. with agitation at 1000 rpm. Sensorgrams were referenced for buffer effects and then analyzed using the Octet QK384-software (ForteBio). Kinetic responses were globally fitted using a one-site binding model to obtain values for association (Kₒₙ), dissociation (Koff) rate constants and the equilibrium dissociation constant (KD).

[7] = target: T4, His-tagged human HER3; assay: BLI (Octet QK384), antibody on anti-human IgG capture tips, His-tagged human HER3 in solution, global one-site fit
Method in brief: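 Steps: capture of anti-HER3 IgG1 (25 nM) on anti-human IgG tips; association and dissociation of human HER3 at 25° C, 1000 rpm; reference subtraction for buffer; global one-site fitting, retaining R²>0.90.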

[8] = target: T5, human HER3 expressed on cells (HEK293 HER3 O/E cells) (human, UniProt P21860 20-1342); assay: flow cytometry on HEK293T HER3 O/E cells, 10 ug antibody as printed, FITC-conjugated anti-Fc secondary
T5 construct: Also used here for HER3 on U2OS cells of the PathHunter kit and on cancer cell lines; also called HEK293 cells transfected with vector encoding human HER3; human HER3-expressing cells
Method: (§1) The cells were washed with buffer (PBS with 2 mM EDTA and 0.5% BSA) and resuspended in FITC-conjugated anti-FC antibody (Invitrogen, USA) at 10 μg/ml for 20 min at 4° C. Cells were washed again and resuspended in 200 μL of FACS flow buffer (PBS with 5 mM EDTA) for flow cytometric analysis using MACSQuant 10 (Miltenyi Biotec, Germany). Unstained WT and transfected HEK293 cells were included in the analysis as negative controls. After acquisition, all raw data were analyzed using Flowlogic software. Cells were gated using forward and side scatter profile percentage of positive cells was determined for native and overexpressing cell populations.

[9] = target: T5, human HER3 expressed on cells (HEK293 …); assay: as above; remark: listed apart in the source
Method: as §1

[10] = target: T4, His-tagged human HER3; assay: plate ELISA dimerisation assay; HER2-Fc coated, constant HER3 His and NRG, antibody varied; blocked partner HER2-Fc
Method: Plate-based ELISA dimerisation assays were carried out according to standard protocols. Plates were coated with 1 μg/ml HER2-Fc protein. […] Plates were then washed and incubated for 1 hour with secondary anti-HIS HRP antibody. […] The absorbance was read at 450 nm.

[11] = target: T6, recombinant biotinylated human HER3 protein (human, UniProt P21860 20-643, limits assumed, biotinylated, site not stated); assay: plate ELISA dimerisation assay; human EGFR-His coated, constant HER3-biotin and NRG, antibody varied; blocked partner EGFR-His
T6 construct: also called HER3-biotin
Method: Plate-based ELISA dimerisation assays were performed according to standard protocols. Plate was coated with 1 μg/ml human EGFR-His. […] Plates were then washed and incubated for 1 hour with secondary anti-avidin HRP antibody. […] The absorbance was read at 450 nm.

[12] = target: T4, His-tagged human HER3; assay: BLI (Octet QK384), antibody on anti-human IgG capture tips, His-tagged human HER3 in solution, global 1:1 fit, R^2 = 0.9902, kon Error 1.12E+04; Response 0.1471 / 0.2882 / 0.3968 / 0.5458 at 35 / 69 / 139 / 278 nM
Method: The anti-HER3 antibody clones in IgG1 format were analysed for binding affinity to human HER3. Bio-Layer Interferometry (BLI) experiments were performed using the Octet QK384 system (ForteBio). anti-Human IgG Capture (AHC) Octet sensor tips (Pall ForteBio, USA) were used to anti-HER3 antibodies (25 nM). All measurements were performed at 25° C. with agitation at 1000 rpm. […] Sensograms were referenced for buffer effects and then fitted using the Octet QK384 user software (Pall ForteBio, USA). Kinetic responses were subjected to a global fitting using a one site binding model to obtain values for association (Kₒₙ), dissociation (Koff) rate constants and the equilibrium dissociation constant (KD). Only curves that could be reliably fitted with the software (R²>0.90) were included in the analysis.

B1: 10D1F.FcA (anti-HER3 clone 10D1_c89 IgG1) (antibody)
heavy: not shown
light: DIQMTQSPSSVSASVGDRVTITCKASQIVGSNVAWYQQKPGKAPEPLIYSASYLYSGVPSRFSGSGSGTDFTLTISSLQPEDFATYYCQQYSSHPLTFGQGTKLEIKRTVAAPSVFIFPPSDEQLKSGTASVVCLLNNFYPREAKVQWKVDNALQSGNSQESVTEQDSKDSTYSLSSTLTLSKADYEKHKVYACEVTHQGLSSPVTKSFNRGEC
notes: also called 10D1F.A; HMBD-001
Kd [1]: < 1 pM
Kd [2]: 265 nM
Kd [3]: < 1 pM
Kd [4]: 294 nM
Kd [5]: 1810 nM
Kd [6]: < 1 pM
koff [6]: < 1e-07 s⁻¹
kon [6]: 199000 M⁻¹ s⁻¹
Kd [7]: 0.0726 nM
% Parent (HER3 positive) [8]: 73.3%
% Parent (HER3 positive) [9]: 73.3%
IC50 [10]: 78.8 nM
IC50 [11]: 4.78 nM
kon [12]: 297000 M⁻¹ s⁻¹
